This is an account of results in paper PMC10455477, “The Roles of Coenzyme A Binding Pocket Residues in Short and Medium Chain Acyl-CoA Synthetases” (Life, 2023).

One may read the Km as the concentration of substrate that gives half-maximal velocity. One may read the inhibition as how much of the control response was suppressed. One may read the kcat as the maximal rate divided by the concentration of active sites.

For one data set, the system named is T1, AcsMt.
T1 construct: gene acs; recombinant, E. coli Rosetta Blue (DE3) placI; His-Trap purified
In words: hydroxamate assay, A540. The format is biochemical, Methanothermobacter thermautotrophicus. Conditions: acetate and MgATP saturating; 65 °C; apparent Km. An excerpt:
hydroxamate assay, A540 on AcsMt

The target in a further data set is T2, MacsMa (Methanosarcina acetivorans, UniProt Q8TLW1).
T2 construct: gene MA_2912; recombinant, E. coli Rosetta Blue (DE3) placI; His-Trap purified
In words: inhibition of propionyl-adenylate synthetase activity. Format: biochemical. The conditions noted are these: read-out: % inhibition at 15 mM.

Substrate in data set [1]: CC(C)(COP(=O)(O)OP(=O)(O)OC[C@H]1O[C@@H](n2cnc3c(N)ncnc32)[C@H](O)[C@@H]1OP(=O)(O)O)[C@@H](O)C(=O)NCCC(=O)NCCS
Description: purified protein. The conditions noted are these: 2-methylbutyrate and ATP saturating, pH 7.5, 55 °C, apparent Km.

Substrate in data set [2]: Nc1ncnc2c1ncn2[C@@H]1O[C@H](COP(=O)(O)OP(=O)(O)OP(=O)(O)O)[C@@H](O)[C@H]1O
Description: purified protein. Conditions: 2-methylbutyrate and CoA saturating, pH 7.5, 55 °C, apparent Km.

Substrate in data set [3]: CCC(=O)O
In words: purified protein. The conditions noted are these: no CoA, ATP saturating, 55 °C, apparent Km.

Substrate in data set [4]: CC(C)(COP(=O)(O)OP(=O)(O)OC[C@H]1O[C@@H](n2cnc3c(N)ncnc32)[C@H](O)[C@@H]1OP(=O)(O)O)[C@@H](O)C(=O)NCCC(=O)NCCS
In words: 2-methylbutyryl-CoA synthetase activity. Conditions: 2-methylbutyrate and ATP saturating, pH 7.5, 55 °C, apparent Km. The format is biochemical, Methanosarcina acetivorans. The text has this: 2-methylbutyryl-CoA synthetase activity on MacsMa

Changes are numbered by the printed parent chain. Numbers in names are those of the source.

On to `CC(C)(COP(=O)(O)OP(=O)(O)OC[C@H]1O[C@@H](n2cnc3c(N)ncnc32)[C@H](O)[C@@H]1O)[C@@H](O)C(=O)NCCC(=O)NCCS` [3′-dephospho CoA], for which the Km in the data set with AcsMt amounted to 2160 ± 500 µM.

Regarding `CC(C)(COP(=O)(O)OP(=O)(O)OC[C@H]1O[C@@H](n2cnc3c(N)ncnc32)[C@H](O)[C@@H]1OP(=O)(O)O)[C@@H](O)C(=O)NCCC(=O)NCCS` [CoA], the inhibition at 15000 µM at MacsMa was roughly 40%.

B1: MacsMa (Methanosarcina acetivorans C2A) (protein)
chain: MTSLLSQFVSKTDFESYEDFQENFKILVPENFNFAYDVVDVYARDSPEKLAMIWCDDYGNEKIFTFKDLKYYSDKAANFFVKHGIGKGDYVMLTLKSRYDFWYCMLGLHKLGAIAVPATHMLKTRDIVYRIEKAGLKMIVCIAEDDVPEQVDEAHAECGDIPLKKAKVGGDVLEGWIDFRKELEESSPIFERPTGEVSTKNEDICLVYFSSGTAGFPKMVEHDNTYPLGHILTAKYWQNVEDDGLHYTVADSGWGKCVWGKLYGQWIAGCAVFVYDYDRFEAKNMLEKASKYGVTTFCAPPTIYRFLIKEDLSHYNFSTLKYAVVAGEPLNPEVFNRFLEFTGIKLMEGFGQTETVVTIATFPWMEPKPGSIGKPTPGYKIELMDRDGRLCEVGEEGEIVINTMEGKPVGLFVHYGKDPERTEETWHDGYYHTGDMAWMDEDGYLWFVGRADDIIKTSGYKVGPFEVESALIQHPAVLECAITGVPDPVRGQVIKATIVLTKDYTPSDSLKNELQDHVKNVTAPYKYPRIIEFVPELPKTISGKIRRVEIRDKDQSQ
Consider B1, for which the results for the Michaelis-Menten constant (Km) in “purified protein [1]”, in the data set “purified protein [2]” and in the data set “purified protein [3]” were 4090 ± 450 µM, 4210 ± 110 µM and 29100 ± 300 µM, respectively. The values for the catalytic constant (kcat) in the data set “purified protein [1]” and in “purified protein [3]” were 2.15 ± 0.1 s⁻¹ and 10.67 ± 1.34 s⁻¹, respectively.

B2: MacsMa (Methanosarcina acetivorans C2A; K464A) (protein)
chain: B1 chain with K461A
notes: recombinant, E. coli Rosetta Blue (DE3) placI; His-Trap purified
For the molecule B2, in data set [4], the Km turned out to be 2190 ± 180 µM and the turnover number (kcat) is 0.55 ± 0.03 s⁻¹.

B3: MacsMa (Methanosarcina acetivorans C2A; G462A) (protein)
chain: B1 chain with G459A
notes: as for B2
As to B3, in data set [4], the Michaelis-Menten constant (Km) came to 2090 ± 60 µM and the kcat was determined as 0.41 ± 0.01 s⁻¹.

B4: MacsMa (Methanosarcina acetivorans C2A; K522R) (protein)
chain: B1 chain with K519R
notes: as for B2
For B4, in data set [4], the Km is 7180 ± 290 µM and the kcat was found to be 1.07 ± 0.02 s⁻¹.

B5: MacsMa (Methanosarcina acetivorans C2A; K464R) (protein)
chain: B1 chain with K461R
notes: as for B2
As for B5, in data set [4], the Km worked out at 1380 ± 140 µM and the kcat was 0.46 ± 0.1 s⁻¹.
